{"source": "patent US20110319337A1", "about": "(published 2011)", "test_in_all_cases": "cell-based or functional assay", "key": {"[1]": {"target": "Frizzled 7 (expressed in transfected 293T cells)"}, "[2]": {"target": "Frizzled 9 (expressed in transfected 293T cells)"}, "[3]": {"target": "T1, Frizzled 6 (expressed in transfected 293T cells)", "T1 sequence (O60353 whole entry, species assumed, looked up)": "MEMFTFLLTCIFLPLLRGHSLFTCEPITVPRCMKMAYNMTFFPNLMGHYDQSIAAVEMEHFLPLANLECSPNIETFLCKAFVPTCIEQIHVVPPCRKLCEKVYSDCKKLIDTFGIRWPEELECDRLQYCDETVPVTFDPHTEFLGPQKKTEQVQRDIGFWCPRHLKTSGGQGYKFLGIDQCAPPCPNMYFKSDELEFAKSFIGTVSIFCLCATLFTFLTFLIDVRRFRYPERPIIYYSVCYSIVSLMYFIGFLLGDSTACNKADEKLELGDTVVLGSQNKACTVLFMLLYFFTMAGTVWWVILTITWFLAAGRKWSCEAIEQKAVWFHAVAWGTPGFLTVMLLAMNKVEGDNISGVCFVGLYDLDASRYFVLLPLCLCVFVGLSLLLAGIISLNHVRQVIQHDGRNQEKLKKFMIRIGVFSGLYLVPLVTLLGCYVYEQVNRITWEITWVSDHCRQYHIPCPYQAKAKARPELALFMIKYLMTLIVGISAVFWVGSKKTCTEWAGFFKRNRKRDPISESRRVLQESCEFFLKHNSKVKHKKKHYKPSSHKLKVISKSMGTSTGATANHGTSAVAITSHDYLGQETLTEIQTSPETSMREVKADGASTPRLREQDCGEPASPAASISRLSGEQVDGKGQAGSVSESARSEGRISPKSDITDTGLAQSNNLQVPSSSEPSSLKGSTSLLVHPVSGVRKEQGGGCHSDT"}, "[4]": {"target": "Frizzled 8 receptor (expressed in transfected cells) (human, UniProt Q9H461 28-694)", "sequence (Q9H461 28-694 limits assumed)": "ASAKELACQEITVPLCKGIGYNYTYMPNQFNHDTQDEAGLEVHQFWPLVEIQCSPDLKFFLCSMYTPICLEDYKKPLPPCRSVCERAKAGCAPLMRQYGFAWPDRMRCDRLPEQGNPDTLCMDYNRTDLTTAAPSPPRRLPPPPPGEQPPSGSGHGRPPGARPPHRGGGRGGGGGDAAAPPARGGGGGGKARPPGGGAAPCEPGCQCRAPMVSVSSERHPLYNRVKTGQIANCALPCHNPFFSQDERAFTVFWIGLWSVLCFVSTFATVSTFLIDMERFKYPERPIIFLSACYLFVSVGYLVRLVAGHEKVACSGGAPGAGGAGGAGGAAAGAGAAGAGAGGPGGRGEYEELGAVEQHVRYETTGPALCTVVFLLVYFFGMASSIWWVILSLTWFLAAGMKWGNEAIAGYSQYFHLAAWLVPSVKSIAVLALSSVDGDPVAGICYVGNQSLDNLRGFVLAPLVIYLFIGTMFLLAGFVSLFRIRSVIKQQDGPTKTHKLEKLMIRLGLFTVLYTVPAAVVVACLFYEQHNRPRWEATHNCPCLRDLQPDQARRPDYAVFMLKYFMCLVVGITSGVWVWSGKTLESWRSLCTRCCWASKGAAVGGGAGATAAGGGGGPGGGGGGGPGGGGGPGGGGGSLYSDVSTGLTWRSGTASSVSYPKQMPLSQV"}}}
{"binder": "wild type Wnt2 (expressed from transfected Wnt2 cDNA) (ligand) SWWYMRATGGSSRVMCDNVPGLVSSQRQLCHRHPDVMRAISQGVAEWTAECQHQFRQHRWNCNTLDRDHSLFGRVLLRSSRESAFVYAISSAGVVFAITRACSQGEVKSCSCDPKKMGSAKDSKGIFDWGGCSDNIDYGIKFARAFVDAKERKGKDARALMNLHNNRAGRKAVKRFLKQECKCHGVSGSCTLRTCWLAMADFRKTGDYLWRKYNGAIQVVMNQDGTGFTVANERFKKPTKNDLVYFENSPDYCIRDREAGSLGTAGRVCNLTSRGMDSCEVMCCGRGYDTSHVTRMTKCGCKFHWCCAVRCQDCLEALDVHTCKAPKNADWTTAT", "values": [{"measurement": "TCF-activity (TOPflash reporter, 293T cells) compared to vector control", "setting": "[1]", "result": 4, "unit": "fold"}, {"measurement": "TCF-activity (TOPflash reporter, 293T cells), increase due to the presence of Wnt2", "setting": "[1]", "result": "~2", "unit": "fold"}, {"measurement": "luciferase activity (TOPflash TCF reporter, 293T cells co-expressing Wnt2 and the Fzd receptor) over vector control alone", "setting": "[2]", "result": 16, "unit": "fold"}, {"measurement": "luciferase activity (TOPflash TCF reporter, 293T cells co-expressing Wnt2 and the Fzd receptor)", "setting": "[3]", "result": 10, "unit": "fold"}, {"measurement": "TCF activity (TOPflash reporter) in Human Embryonic Kidney 293 cells and A549 cells compared to vector control", "setting": "[4]", "result": 5, "unit": "fold"}, {"measurement": "luciferase activity (TOPflash TCF reporter, 293T cells co-expressing Wnt2 and the Fzd receptor) compared to vector alone", "setting": "[4]", "result": 25, "unit": "fold"}]}
